Data taken from IntAct's records for PubMed 19494831.

B1: Polycomb protein Sfmbt (Drosophila melanogaster (Fruit fly)), Q9VK33 (parent)
chain: MNPSELRMMWMSSQYNSERITLEDAATLLGHPTVGLSVMEDLSAHQPTLDMNPMMSLMGGDFTGQAAATAAALGVQPGTLIATNSNNLYGFAHMGGLQQQLLQQSAAAAVFQNYAEAMDNDVENGMVGMAMEAVVDDDDQVYGQRDNNFDDNGSELEPKQEIINIDDFVMMNEDNNSYDGTDFMTSSDKDISQSSSSCMAQMPGSLGVPGVEHDLLVPLPDGLLHHKLLGTTLVPAMGTLNGNAFGNIMVSTENTSSKQMQRTYSTAKGANSTATTATCSASTSSALRSQRKTRKIEPVNRPGLVLKTPIAYRGNIDPSVIPIQKDGMAVCKRCGAIGVKHTFYTKSRRFCSMACARGELYSLVLNTKMEGDQATTSSPDPGAGSESADLPGDQQQSQSDIELDLHAAHIKNANYRFRITDQSKITQLNSFGEPMSMGGDAAANNVQMAADETIAALNGGAVGDATAPGSTEEGASTPNSYLSAAPTPKALRLFKDIYPQDDLPQIPKYERLPVPCPQMEKIISIRRRMYDPTHSYDWLPRLSKENFNAAPVTCFPHAPGCEVWDNLGVGMKVEVENTDCDSIEVIQPGQTPTSFWVATILEIKGYKALMSYEGFDTDSHDFWVNLCNAEVHSVGWCATRGKPLIPPRTIEHKYKDWKDFLVGRLSGARTLPSNFYNKINDSLQSRFRLGLNLECVDKDRISQVRLATVTKIVGKRLFLRYFDSDDGFWCHEDSPIIHPVGWATTVGHNLAAPQDYLERMLAGREAMIEVHEDDATIELFKMNFTFDEYYSDGKTNSFVEGMKLEAVDPLNLSSICPATVMAVLKFGYMMIRIDSYQPDASGSDWFCYHEKSPCIFPAGFCSVNNISVTPPNGYDSRTFTWEGYLRDTGAVAAGQHLFHRIIPDHGFEVGMSLECADLMDPRLVCVATVARVVGRLLKVHFDGWTDEYDQWLDCESADIYPVGWCVLVNHKLEGPPRVAHQQAPKPAPKPKIQRKRKPKKGAAGGKTPTDNNTQSVKSRTIALKTTPHLPKLSIKLELKPEHHNAAFYENNQPEEEGDEEDPDADGDGDGSTSHISEQSTTQSSSDLIAGSGSGSGSASLVTLATGSNKTNSSATNNKYIPRLADIDSSEPHLELVPDTWNVYDVSQFLRVNDCTAHCDTFSRNKIDGKRLLQLTKDDIMPLLGMKVGPALKISDLIAQLKCKVNPGRARSHKTNKSPFL

Variants of: B1
Settings: with h4_human H4C16, P62805

Q: Which “effect of a mutation on the interaction” value does the source give for Y948F here?
A: decreasing interaction

Q: How did the “effect of a mutation on the interaction” value turn out when E947A was run?
A: decreasing interaction

Variants of: B1
Settings: with h4_human H4C16, P62805
Remark: another data set of the same source

Q: How did the “effect of a mutation on the interaction” value turn out when Y948F was run?
A: disrupting interaction

Q: With E947A as the variant, how does the “effect of a mutation on the interaction” value read?
A: disrupting interaction

Variants of: B1
Settings: with h33_human H3-3A

Q: How did the “effect of a mutation on the interaction” value turn out when D808A was run?
A: decreasing interaction

Variants of: B1
Settings: with h4_human H4C16, P62805
Remark: another data set of the same source

Q: Which “effect of a mutation on the interaction” value does the source give for D808A here?
A: decreasing interaction

Variants of: B1
Settings: with h4_human H4C16, P62805
Remark: another data set of the same source

Q: D697A was tested. Which “effect of a mutation on the interaction” value did it give?
A: decreasing interaction

Variants of: B1
Settings: with h33_human H3-3A
Remark: another data set of the same source

Q: For D697A, which “effect of a mutation on the interaction” value is on record?
A: increasing interaction

Variants of: B1
Settings: with h4_human H4C16, P62805
Remark: another data set of the same source

Q: How did the “effect of a mutation on the interaction” value turn out when D917A was run?
A: disrupting interaction

Variants of: B1
Settings: with h33_human H3-3A
Remark: another data set of the same source

Q: For D917A, which “effect of a mutation on the interaction” value is on record?
A: disrupting interaction
